Measurements from paper PMC3680461, “Diversity of Plant Methionine Sulfoxide Reductases B and Evolution of a Form Specific for Free Methionine Sulfoxide” (PLoS ONE, 2013).
Where a chain is given by its changes, count along the chain named.

Experiments:
[1] = target: T1, GmMSRB4 (Glycine max, UniProt I1ME37); experiment: NADPH consumption, TRX-coupled; type: biochemical; conditions: 25 µM yeast TRX2, 2 µM TRX reductase, 200 µM NADPH; S/R mixture used, Km given as half of measured value; read-out: Free L-MetO / Km (μM)^c
T1 construct: gene LOC100784622; without predicted N-terminal chloroplast signal peptide (predicted TP length 67), pET21b His-tag, E. coli BL21(DE3), purified
T1 sequence (I1ME37 68-204): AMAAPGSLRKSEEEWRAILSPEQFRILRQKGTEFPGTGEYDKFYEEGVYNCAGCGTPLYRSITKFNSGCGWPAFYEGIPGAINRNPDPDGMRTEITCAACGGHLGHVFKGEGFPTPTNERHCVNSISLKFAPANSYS
Excerpt: (§1) NADPH consumption, TRX-coupled on GmMSRB4

[2] = target: T2, GmMSRB2 (Glycine max, UniProt C6SXW1); experiment: NADPH consumption, TRX-coupled; type: biochemical; conditions: 25 µM yeast TRX2, 2 µM TRX reductase, 200 µM NADPH; S/R mixture used, Km given as half of measured value; read-out: Free L-MetO / Km (μM)^c
T2 construct: full-length, pDEST17 His-tag, E. coli BL21(DE3), purified; cytosolic (no signal peptide predicted)
T2 sequence (C6SXW1 1-138): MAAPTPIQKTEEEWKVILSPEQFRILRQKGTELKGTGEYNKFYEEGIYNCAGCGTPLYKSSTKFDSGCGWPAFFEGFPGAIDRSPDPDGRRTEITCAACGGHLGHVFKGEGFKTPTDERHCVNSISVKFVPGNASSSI
Excerpt: (§2) NADPH consumption, TRX-coupled on GmMSRB2

[3] = target: T3, GmMSRB2 (Glycine max, UniProt C6SXW1, C68S); experiment: DTT-dependent MSR activity; type: biochemical; conditions: DTT as reductant
T3 construct: full-length, pDEST17 His-tag, E. coli BL21(DE3), purified; cytosolic (no signal peptide predicted)
T3 sequence (C6SXW1 1-138 C68S): T2 sequence (C6SXW1 1-138) with C68S

[4] = target: T4, GmMSRB1 (Glycine max, UniProt C6TFD8); experiment: DTT-dependent MSR activity; type: biochemical; conditions: DTT as reductant
T4 construct: without predicted N-terminal chloroplast signal peptide (predicted TP length 45), pET21b His-tag, E. coli BL21(DE3), purified
T4 sequence (C6TFD8 46-202): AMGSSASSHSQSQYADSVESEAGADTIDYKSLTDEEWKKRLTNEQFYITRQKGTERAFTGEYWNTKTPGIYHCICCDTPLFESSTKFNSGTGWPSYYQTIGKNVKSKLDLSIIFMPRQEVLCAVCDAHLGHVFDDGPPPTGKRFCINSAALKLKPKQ

[5] = substrate: CC(=O)N[C@@H](CC[S+](C)[O-])C(=O)O; experiment: NADPH consumption, TRX-coupled; type: biochemical, Glycine max; conditions: 25 µM yeast TRX2, 2 µM TRX reductase, 200 µM NADPH
Excerpt: as §1

[6] = substrate: CC(=O)N[C@@H](CC[S+](C)[O-])C(=O)O; experiment: NADPH consumption, TRX-coupled; type: biochemical, Glycine max; conditions: 25 µM yeast TRX2, 2 µM TRX reductase, 200 µM NADPH; remark: listed apart in the source
Excerpt: as §2

Question: What does the source list for Free L-MetO?
Answer: Km [1]: 1450 µM; Km [2]: 2090 µM

Question: What does the source list for `CN(C)c1ccc(/N=N/c2ccc(S(=O)(=O)N[C@@H](CC[S@@+](C)[O-])C(=O)O)cc2)cc1` [dabsyl-MetO]?
Answer: DTT-dependent MSR activity [3]: the C68S GmMSRB2 mutant was active towards both protein-based and free MetO; DTT-dependent MSR activity [4]: GmMSRB1 was two-fold more efficient than GmMSRB2 or GmMSRB4 in reducing dabsylated Met-R-O

B1: GmMSRB4 (Glycine max) (protein)
chain: T1 sequence (I1ME37 68-204)
notes: without predicted N-terminal chloroplast signal peptide (predicted TP length 67), pET21b His-tag, E. coli BL21(DE3), purified
Question: With B1 as the molecule, how does the Km [5] read?
Answer: The Km was 49 ± 6 µM.

Question: And the kcat [5]?
Answer: Its kcat is 0.24 ± 0.01 s⁻¹.

Question: And the kcat/Km [5]?
Answer: The kcat/Km was 5000 M⁻¹ s⁻¹.

B2: GmMSRB2 (Glycine max) (protein)
chain: T2 sequence (C6SXW1 1-138)
notes: full-length, pDEST17 His-tag, E. coli BL21(DE3), purified; cytosolic (no signal peptide predicted)
Question: For B2, which Km [6] is on record?
Answer: The Km was 49 ± 5 µM.

Question: What about the kcat [6] of the same molecule?
Answer: Its kcat is 2.04 ± 0.06 s⁻¹.

Question: What about the kcat/Km [6] of the same molecule?
Answer: Its kcat/Km is 42000 M⁻¹ s⁻¹.
